Consider four molecules from patent US20210032347A1 (JIANGSU HANSOH PHARMACEUTICAL GROUP, published 2021).

Where two headings read alike, the source gives them in different places. Where only a bound is given, the exact number is not on record here.

Assay [1] concerns the target T1, B7-H4 expressed on cells (MX-1 cells; CHO-S cells stably expressing B7-H4) (human, UniProt Q7Z7D3 25-282).
T1 construct: whole, on cells; also called huB7-H4; antigens expressed by cells
T1 sequence (looked up): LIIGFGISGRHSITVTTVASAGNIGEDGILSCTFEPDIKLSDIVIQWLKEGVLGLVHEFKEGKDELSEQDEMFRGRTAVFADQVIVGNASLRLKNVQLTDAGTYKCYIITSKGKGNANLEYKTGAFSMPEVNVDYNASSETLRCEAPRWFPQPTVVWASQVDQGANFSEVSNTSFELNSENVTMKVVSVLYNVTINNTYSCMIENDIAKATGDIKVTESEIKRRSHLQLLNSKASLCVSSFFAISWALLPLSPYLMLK
In words: flow cytometry (FACS) on MX-1 cells. Here is the method: The cultured MX-1 cells were collected, cell density was adjusted with PBS pH 7.4, then plated onto a 96-well V-shaped bottom plate with 1×10⁵ cells per well, and centrifuged at 2000 rpm for 5 minutes to remove supernatant. 100 μl of the serially diluted chimeric antibody solution was added (diluted with 0.5% BSA in PBS to obtain a gradient of 3-fold dilutions, starting from 1 μM, with a total of 10 doses) into each well, mixed, and incubated for 1 hour at 4° C. with shaking; the culture was centrifuged at 2000 rpm for 5 minutes to remove the supernatant, and the cells were washed twice with PBS, and 100 μl of FITC-labeled goat anti-human secondary antibody (Abeam, cat #ab97224) diluted with 0.5% BSA in PBS was added into each well, mixed well and incubated for 30 minutes at 4° C. in a shaker. Centrifugation was performed at 2000 rpm for 5 minutes and the supernatant was removed. Cells were washed twice with PBS and resuspended in PBS. The signals were detected using flow cytometer (BECKMANCOULTER, model DxFLEX), and the concentration curve was plotted and the results were analyzed. As indicated in the table and figure, humanized antibodies 2F7, 2F8, 2G6 and 1C9 show positive bindings to MX-1 cells on which B7-H4 was highly expressed.

The target in assay [2] is T2, Human B7-H4 with HisFlag tag (huB7-H4-his) (human, UniProt Q7Z7D3 25-258).
T2 construct: also called HuB7-H4 His protein; huB7-H4-HF
T2 sequence: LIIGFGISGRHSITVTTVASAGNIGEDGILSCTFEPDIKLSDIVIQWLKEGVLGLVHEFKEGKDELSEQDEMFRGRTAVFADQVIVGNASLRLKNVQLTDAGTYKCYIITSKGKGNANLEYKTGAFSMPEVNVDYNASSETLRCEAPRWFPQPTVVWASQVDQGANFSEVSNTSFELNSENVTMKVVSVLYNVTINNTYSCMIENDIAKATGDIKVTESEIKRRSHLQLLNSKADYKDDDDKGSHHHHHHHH
In words: SPR Biacore T200, antibody coupled to CM5 chip, hu-B7-H4-his in flow, 1:1 model. For orientation: SPR reads the build-up and loss of mass on a sensor chip optically.

In assay [3] the target is T3, antigen fragment TVASAGNIGEDGILSCTAEP (human).
T3 construct: Alanine-scan variant of P12; the entry already carries the alanine; also called P12 alanine mutant (F to A)
T3 peptide: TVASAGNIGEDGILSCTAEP
Description: indirect ELISA on antigen fragment, alanine scan.

The target of assay [4] is T4, antigen fragment TVASAGNIGEDGILSATFEP (human).
T4 construct: Alanine-scan variant of P12; the entry already carries the alanine; also called P12 alanine mutant (C to A)
T4 peptide: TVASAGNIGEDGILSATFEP
Description: indirect ELISA on antigen fragment, alanine scan.

In assay [5] the target is T5, antigen fragment TVASAGNIGEDGIASCTFEP (human).
T5 construct: Alanine-scan variant of P12; the entry already carries the alanine; also called P12 alanine mutant (L to A)
T5 peptide: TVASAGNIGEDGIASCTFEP
In words: indirect ELISA on antigen fragment, alanine scan. A general note: An ELISA detects its analyte on a solid surface through an enzyme-linked reagent.

The target of assay [6] is T6, antigen fragment P12 (TVASAGNIGEDGILSCTFEP) (human).
T6 peptide: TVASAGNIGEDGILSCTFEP
Description: indirect ELISA on antigen fragment.

Assay [7] concerns the target T6, antigen fragment P12 …. Description: indirect ELISA on antigen fragment.
For assay [8], the target named is T3, antigen fragment TVASAGNIGEDGILSCTAEP
Description: indirect ELISA on antigen fragment, alanine scan.

For assay [9], the target named is T7, antigen fragment TVASAGNIGEDGALSCTFEP (human).
T7 construct: Alanine-scan variant of P12; the entry already carries the alanine; also called P12 alanine mutant (I to A)
T7 peptide: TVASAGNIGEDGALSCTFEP
Description: indirect ELISA on antigen fragment, alanine scan.

Assay [10] deals with T4, antigen fragment TVASAGNIGEDGILSATFEP
Description: indirect ELISA on antigen fragment, alanine scan.

For assay [11], the target named is T5, antigen fragment TVASAGNIGEDGIASCTFEP
In words: indirect ELISA on antigen fragment, alanine scan.

In assay [12] the target is T8, antigen fragment TVASAGNIGEDGILSCTFEA (human).
T8 construct: Alanine-scan variant of P12; the entry already carries the alanine; also called P12 alanine mutant (P to A)
T8 peptide: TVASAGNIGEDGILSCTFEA
Description: indirect ELISA on antigen fragment, alanine scan.

The target of assay [13] is T9, antigen fragment TVASAGNIGEDGILSCAFEP (human).
T9 construct: Alanine-scan variant of P12; the entry already carries the alanine; also called P12 alanine mutant (T to A)
T9 peptide: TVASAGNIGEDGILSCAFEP
Description: indirect ELISA on antigen fragment, alanine scan.

The target of assay [14] is T6, antigen fragment P12 …. In words: indirect ELISA on antigen fragment. Here is the method:
(§1) The method procedures were the same as described in Example 3 (1): in vitro indirect ELISA binding assay. […] To further confirm the epitope to which the antibody binds, alanine scan was performed on the antigen fragment P12, that is, each single amino acid located in P12 was mutated to alanine respectively.

The target in assay [15] is T3, antigen fragment TVASAGNIGEDGILSCTAEP
Description: indirect ELISA on antigen fragment, alanine scan. On the procedure:
as §1

Assay [16] addresses T10, antigen fragment TVASAGNIGEDGILSCTFAP (human).
T10 construct: Alanine-scan variant of P12; the entry already carries the alanine; also called P12 alanine mutant (E to A)
T10 peptide: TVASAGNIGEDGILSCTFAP
Description: indirect ELISA on antigen fragment, alanine scan. Here is the method: as §1

Assay [17] has as its target T7, antigen fragment TVASAGNIGEDGALSCTFEP
In words: indirect ELISA on antigen fragment, alanine scan. Here is the method:
as §1

The target of assay [18] is T4, antigen fragment TVASAGNIGEDGILSATFEP
In words: indirect ELISA on antigen fragment, alanine scan. On the procedure:
as §1

Assay [19] concerns the target T5, antigen fragment TVASAGNIGEDGIASCTFEP
Description: indirect ELISA on antigen fragment, alanine scan. On the procedure: as §1

The target in assay [20] is T9, antigen fragment TVASAGNIGEDGILSCAFEP
Description: indirect ELISA on antigen fragment, alanine scan. Here is the method:
as §1

B1: humanized anti-B7-H4 antibody hu2F8 (antibody, human IgG1, kappa, V domains shown)
VH: EVQLVQSGAEVKKPGASVKVSCKASGYTFTSSWMNWVRQAPGQRLEWMGGIYPNRGNIEYNEKFKGRVTLTVDTSASTAYMELSSLRSEDTAVYYCARDSRFSYWGQGTLVTVSS
VL: DIQMTQSPSSLSASVGDRVTITCKASQDVRTAVAWYQQKPGKAPKLLISSTSYRYTGVPSRFSGSGSGTDFTFTISSLQPEDIATYYCQQHYSTPLTFGGGTKVEIKR
notes: human IgG1 / kappa; also called humanized antibody 2F8
As for B1, the EC50 in [1] was 7.26 nM. For the same molecule, in [2], the Kd was determined as 0.25 nM, the koff was determined as 0.000112 s⁻¹ and the kon stood at 447000 M⁻¹ s⁻¹.

B2: humanized anti-B7-H4 antibody hu1C9 (antibody, human IgG1, kappa, V domains shown)
VH: EVQLVQSGAEVKKPGASVKVSCKASGDTFTTYWMNWVRQAPGQRLEWMGGIYLNRGSSEYNEKFKGRVTLTVDTSASTAYMELSSLRSEDTAVYYCARDSRFSYWGQGTLVTVSS
VL: DIQMTQSPSSLSASVGDRVTITCKASQDVSTAVAWYQQKPGKAPKLLISSASYRYTGVPSRFSGSGSGTDFTFTISSLQPEDIATYYCQQHYNTPLTFGGGTKVEIKR
notes: human IgG1 / kappa; also called humanized antibody 1C9
As to B2, the half-maximal effective concentration (EC50) in assay [3] amounted to 488 nM; in assay [4] it was 292 nM; in [5] it was 467 nM; in assay [6] it was 272 nM; in assay [1], 7.25 nM. The Kd in [2] is at most 0.0298 nM. For the same molecule, the koff in assay [2] was at most 1e-05 s⁻¹. In addition, in assay [2], the kon amounted to 335000 M⁻¹ s⁻¹.

B3: humanized anti-B7-H4 antibody hu2G6 (antibody, human IgG1, kappa, V domains shown)
VH: EVQLLESGGGLVQPGGSLRLSCAASGFTFSRYGMSWVRQAPGKGLEWVSGINGGGSYTYYLDTVKGRFTISRDNARNTLYLQMSSLRAEDTAVYYCVSQGSNYYFDYWGQGTLVTVSS
VL: DIRMTQSPSSLSASVGDRVTITCHASQGISSNIGWLQQKPGKAPKALIYHGTNLEDGVPSRFSGSGSGADYTLTISSLQPEDFATYYCVQYAQFPYTFGGGTKVEIKR
notes: human IgG1 / kappa; also called humanized antibody 2G6
Consider B3, for which the EC50 was determined as 14.3 nM in assay [1]; 793 nM in assay [7]; 2600 nM in [8]; 2630 nM in assay [9]; 3480 nM in assay [10]; 3160 nM in assay [11]. Also, the EC50 in assay [12] is 2370 nM; in assay [13], 2290 nM. The molecule also displayed a Kd in assay [2] of at most 0.0135 nM. Besides, the dissociation rate constant (koff) in [2] is at most 1e-05 s⁻¹. In [2], this molecule registered a kon of 741000 M⁻¹ s⁻¹.

B4: humanized anti-B7-H4 antibody hu2F7 (antibody, human IgG1, kappa, V domains shown)
VH: EVQLVESGGGLVQPGGSLRLSCAASGFTFSNYYMSWVRQAPGKGLEWVAYVSSGGGSTYYSDSVKGRFTISRDNAKNTLYLQMSSLRAEDTAVYYCTRESYSQGNYFDYWGQGTTVTVSS
VL: EIVMTQSPATLSLSPGERATLSCRASQSISDYLHWYQQKPGQSPRLLIKFASQSISGIPARFSGSGSGTDFTLTISSLEPEDFAVYYCQNGHSFSLTFGQGTKLEIKR
notes: human IgG1 / kappa; also called humanized antibody 2F7
In the case of B4, the EC50 turned out to be 7.32 nM in [1]; 118 nM in assay [14]; 986 nM in assay [15]; 662 nM in assay [16]; 771 nM in [17]; 2010 nM in assay [18]. Also, the 50% effective concentration (EC50) in assay [19] turned out to be 1480 nM; in assay [20], 463 nM. The same molecule displayed a Kd in [2] of 0.757 nM. The same molecule showed a koff in assay [2] of 0.000249 s⁻¹. Also, the kon in [2] came out at 329000 M⁻¹ s⁻¹.

What is called EC50 is the concentration needed to bring the measured effect to its halfway point. A lower EC50 goes with a more potent agent. Usually Kd stands for the free concentration of one partner at which half of the binding sites on the other are occupied at equilibrium, for simple one-to-one binding. A high value points to weaker binding. The koff is a measure of how fast the partners let go of each other. A word on the kon: it is the second-order rate constant of association. Lower therefore signals slow association.
